Test results taken from IntAct's records for PubMed 30245403.

Biological target: T1, prdx2_human PRDX2 (UniProt P32119)
T1 sequence: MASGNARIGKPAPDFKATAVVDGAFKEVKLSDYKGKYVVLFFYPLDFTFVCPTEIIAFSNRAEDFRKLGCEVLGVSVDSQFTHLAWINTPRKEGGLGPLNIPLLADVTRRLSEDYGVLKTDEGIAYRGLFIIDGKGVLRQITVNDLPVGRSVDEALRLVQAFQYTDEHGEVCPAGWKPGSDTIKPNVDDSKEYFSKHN

| effect of a mutation on the interaction | Substance |
| --- | --- |
| with no effect | "DNA (cytosine-5)-methyltransferase 3A" (Homo sapiens) (from UniProt Q9Y6K1) R882C |
| increasing interaction strength | "DNA (cytosine-5)-methyltransferase 3A" (Homo sapiens) (from UniProt Q9Y6K1) R882H |
